Consider two molecules from paper PMC2955445 (Journal of the American Chemical Society, 2010).

B2: Enzyme I (EI), full length (residues 1-575), from E. coli (enzyme)
chain: not shown

Read-outs that look alike come from different tables or passages of the source.

Series [1] has as its target B2. In words: ITC. A general note: Isothermal titration calorimetry measures the heat released or taken up as one component is titrated into another.
Series [2] concerns the target B2. The series can be described thus: ITC. The source holds these as a separate data set.
The series “AUC” concerns the molecule itself. In words: AUC.

B1: histidine phosphocarrier protein HPr (natural protein)
chain: not shown
A word on the Kd: it is the concentration at which binding is half-saturated. Lower therefore signals a tighter complex. For the molecule B1, the values for the Kd in series [1] and in series [2] were 6.8 ± 1.8 µM and 21 ± 1.1 µM, respectively.

One may read the stoichiometry N as a count of units in the complex or per binding partner. As to B2, the “stoichiometry N” value in the series “AUC” came out at 2.
